Assay results: publication PMC10999750

Legend:
Assay in all cases: fluorescence polarisation; FITC-tagged peptide ('2 nm' [sic]) with importin two-fold serially diluted from 4.5 µM across 23 wells, 200 µl, GST Buffer A (50 mM Tris, 125 mM NaCl); three independent experiments
[1] = target: Synthetic FITC labelled AAV 09YN Cap-BR peptide (residues 117-167)
[2] = target: AAV 09YN Cap-BR-mMAJOR (FITC labelled peptide, residues 117-167, major site mutant)
[3] = target: AAV 09YN Cap-BR-mMINOR (FITC labelled peptide, residues 117-167, minor site mutant)
[4] = target: AAV 09YN Cap-BR-mMINOR+mMAJOR (FITC labelled peptide, residues 117-167, minor and major site mutant)

Row | Substance | Kd [1] [nM] | Kd [2] [nM] | Kd [3] [nM] | Kd [4] [nM]
1 | Human importin β (hImpβ) (from UniProt Q14974 1-876) (natural protein) | 1140 |  |  | 
2 | Human importin α1 lacking the IBB domain (hImpα1DIBB) (domain or fragment) | 483 |  |  | 
3 | Human importin α3 lacking the IBB domain (hImpα3DIBB) (domain or fragment) | 1 | 1.2 | 1.6 | 1.4
4 | Human importin α7 lacking the IBB domain (hImpα7DIBB) (domain or fragment) | 11 |  |  | 
5 | Human importin α5 lacking the IBB domain (hImp5DIBB) (domain or fragment) | 862 |  |  | 
